Experimental data as given in patent US20250018014A1, “METHOD FOR TREATING AND/OR PREVENTING REGNASE-1-RELATED DISEASE” (OSAKA UNIVERSITY, priority 2018, published 2025).

T1: full-length human Regnase-1 with a FLAG tag on the N-terminal side and a biotin ligase BirA recognition … (human, UniProt Q5D1E8 1-599, biotinylated at the BirA recognition sequence when required)
T1 sequence: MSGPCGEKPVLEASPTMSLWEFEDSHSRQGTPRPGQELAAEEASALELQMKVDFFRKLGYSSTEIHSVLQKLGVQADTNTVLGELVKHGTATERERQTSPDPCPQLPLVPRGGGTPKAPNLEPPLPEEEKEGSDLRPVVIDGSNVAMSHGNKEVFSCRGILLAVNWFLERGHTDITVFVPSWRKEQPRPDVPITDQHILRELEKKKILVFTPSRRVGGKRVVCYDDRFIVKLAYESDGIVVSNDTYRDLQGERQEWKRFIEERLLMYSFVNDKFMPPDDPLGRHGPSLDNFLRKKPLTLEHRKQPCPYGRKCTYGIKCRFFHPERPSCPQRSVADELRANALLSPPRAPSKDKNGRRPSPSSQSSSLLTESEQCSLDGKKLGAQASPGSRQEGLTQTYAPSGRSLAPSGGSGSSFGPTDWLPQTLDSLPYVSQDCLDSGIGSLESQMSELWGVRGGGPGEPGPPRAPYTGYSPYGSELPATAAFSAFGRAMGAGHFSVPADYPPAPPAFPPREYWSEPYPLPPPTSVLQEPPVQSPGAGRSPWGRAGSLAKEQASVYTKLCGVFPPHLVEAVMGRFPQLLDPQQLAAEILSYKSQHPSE

T2: C-terminal domain-deleted human Regnase-1 (amino acids 1 to 546) with N-terminal FLAG tag and C-terminal BirA … (human, UniProt Q5D1E8 1-546)
T2 sequence: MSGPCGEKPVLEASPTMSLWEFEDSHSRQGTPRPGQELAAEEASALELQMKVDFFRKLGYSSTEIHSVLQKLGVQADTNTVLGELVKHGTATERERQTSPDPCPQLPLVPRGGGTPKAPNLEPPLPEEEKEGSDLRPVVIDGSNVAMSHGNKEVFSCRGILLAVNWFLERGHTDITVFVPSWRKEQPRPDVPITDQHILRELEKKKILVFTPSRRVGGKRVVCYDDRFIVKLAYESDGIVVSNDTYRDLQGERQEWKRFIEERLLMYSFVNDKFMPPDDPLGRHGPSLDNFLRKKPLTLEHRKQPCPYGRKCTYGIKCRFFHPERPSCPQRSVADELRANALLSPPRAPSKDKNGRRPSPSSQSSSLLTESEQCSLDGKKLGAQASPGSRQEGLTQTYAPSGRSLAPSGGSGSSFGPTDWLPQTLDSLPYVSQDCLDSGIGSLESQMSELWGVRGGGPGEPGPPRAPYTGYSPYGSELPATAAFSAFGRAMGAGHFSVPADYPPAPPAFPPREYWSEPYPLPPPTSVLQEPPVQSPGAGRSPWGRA

T3: C-terminal human Regnase-1 (amino acids 301 to 599) with N-terminal FLAG tag and C-terminal BirA recognition … (human, UniProt Q5D1E8 301-599)
T3 sequence: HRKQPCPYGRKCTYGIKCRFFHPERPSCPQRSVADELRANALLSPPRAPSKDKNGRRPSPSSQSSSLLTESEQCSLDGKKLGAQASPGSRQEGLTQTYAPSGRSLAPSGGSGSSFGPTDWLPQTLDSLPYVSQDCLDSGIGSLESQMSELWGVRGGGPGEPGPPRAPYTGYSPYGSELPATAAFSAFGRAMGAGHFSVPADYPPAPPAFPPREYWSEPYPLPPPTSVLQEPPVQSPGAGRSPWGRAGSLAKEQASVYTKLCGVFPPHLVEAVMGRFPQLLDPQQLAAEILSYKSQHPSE


Tests used:
Experiment in all cases: cell-based or functional assay
[1] = target: T1, full-length human Regnase-1 with a FLAG …
[2] = target: T2, C-terminal domain-deleted human …
[3] = target: T3, C-terminal human Regnase-1 (amino acids …)
[4] = target: T1, full-length human Regnase-1 with a FLAG …; remark: listed apart in the source
[5] = target: T2, C-terminal domain-deleted human …; remark: listed apart in the source
[6] = target: T3, C-terminal human Regnase-1 (amino acids …); remark: listed apart in the source

Row | Binder | 50% inhibition concentration, Regnase-1 phosphorylation by TBK1 (AlphaScreen) [1] | 50% inhibition concentration, Regnase-1 phosphorylation by TBK1 (AlphaScreen) [2] | 50% inhibition concentration, Regnase-1 phosphorylation by TBK1 (AlphaScreen) [3] | 50% inhibition concentration, Regnase-1 phosphorylation by IKKβ (AlphaScreen) [4] | 50% inhibition concentration, Regnase-1 phosphorylation by IKKβ (AlphaScreen) [5] | 50% inhibition concentration, Regnase-1 phosphorylation by IKKβ (AlphaScreen) [6]
1 | XNSWYINIWGHD (HELM PEPTIDE1{[meA].N.S.W.Y.I.N.I.W.G.H.D.[C1CCN([*:1])C1]}$PEPTIDE1,PEPTIDE1,1:R1-12:R3$$$V2.0; SMILES CC[C@H](C)[C@@H]1NC(=O)[C@H](CC(N)=O)NC(=O)[C@H]([C@@H](C)CC)NC(=O)[C@H](Cc2ccc(O)cc2)NC(=O)[C@H](Cc2c[nH]c3ccccc23)NC(=O)[C@H](CO)NC(=O)[C@H](CC(N)=O)NC(=O)[C@H](C)N(C)C(=O)C[C@@H](C(=O)N2CCCC2)NC(=O)[C@H](Cc2c[nH]cn2)NC(=O)CNC(=O)[C@H](Cc2c[nH]c3ccccc23)NC1=O) [PP15] | 8.5 µM | 9.5 µM | 17.4 µM | 5.6 µM | 31 µM | 22 µM
2 | XKFWIHHSFED (HELM PEPTIDE1{[meA].K.F.W.I.H.H.S.F.E.D.[C1CCN([*:1])C1]}$PEPTIDE1,PEPTIDE1,1:R1-11:R3$$$V2.0; SMILES CC[C@H](C)[C@@H]1NC(=O)[C@H](Cc2c[nH]c3ccccc23)NC(=O)[C@H](Cc2ccccc2)NC(=O)[C@H](CCCCN)NC(=O)[C@H](C)N(C)C(=O)C[C@@H](C(=O)N2CCCC2)NC(=O)[C@H](CCC(=O)O)NC(=O)[C@H](Cc2ccccc2)NC(=O)[C@H](CO)NC(=O)[C@H](Cc2c[nH]cn2)NC(=O)[C@H](Cc2c[nH]cn2)NC1=O) [PP20] | 38.5 µM | > 62.1 µM | > 62.1 µM | 24.7 µM | > 62.1 µM | > 62.1 µM
3 | XDIWFDYWDWD (HELM PEPTIDE1{[meA].D.I.W.F.D.Y.W.D.W.D.[C1CCN([*:1])C1]}$PEPTIDE1,PEPTIDE1,1:R1-11:R3$$$V2.0; SMILES CC[C@H](C)[C@@H]1NC(=O)[C@H](CC(=O)O)NC(=O)[C@H](C)N(C)C(=O)C[C@@H](C(=O)N2CCCC2)NC(=O)[C@H](Cc2c[nH]c3ccccc23)NC(=O)[C@H](CC(=O)O)NC(=O)[C@H](Cc2c[nH]c3ccccc23)NC(=O)[C@H](Cc2ccc(O)cc2)NC(=O)[C@H](CC(=O)O)NC(=O)[C@H](Cc2ccccc2)NC(=O)[C@H](Cc2c[nH]c3ccccc23)NC1=O) [PP17] | < 0.06 µM | 0.3 µM | < 0.06 µM | 0.5 µM | 0.3 µM | 0.7 µM
4 | XDIWFDYWDYD (HELM PEPTIDE1{[meA].D.I.W.F.D.Y.W.D.Y.D.[C1CCN([*:1])C1]}$PEPTIDE1,PEPTIDE1,1:R1-11:R3$$$V2.0; SMILES CC[C@H](C)[C@@H]1NC(=O)[C@H](CC(=O)O)NC(=O)[C@H](C)N(C)C(=O)C[C@@H](C(=O)N2CCCC2)NC(=O)[C@H](Cc2ccc(O)cc2)NC(=O)[C@H](CC(=O)O)NC(=O)[C@H](Cc2c[nH]c3ccccc23)NC(=O)[C@H](Cc2ccc(O)cc2)NC(=O)[C@H](CC(=O)O)NC(=O)[C@H](Cc2ccccc2)NC(=O)[C@H](Cc2c[nH]c3ccccc23)NC1=O) [PP18] | 0.6 µM | 1.8 µM | 0.9 µM | 0.4 µM | 0.2 µM | 0.5 µM
5 | XRFGVWSWIYPD (HELM PEPTIDE1{[meA].R.F.G.V.W.S.W.I.Y.P.D.[C1CCN([*:1])C1]}$PEPTIDE1,PEPTIDE1,1:R1-12:R3$$$V2.0; SMILES CC[C@H](C)[C@@H]1NC(=O)[C@H](Cc2c[nH]c3ccccc23)NC(=O)[C@H](CO)NC(=O)[C@H](Cc2c[nH]c3ccccc23)NC(=O)[C@H](C(C)C)NC(=O)CNC(=O)[C@H](Cc2ccccc2)NC(=O)[C@H](CCCNC(=N)N)NC(=O)[C@H](C)N(C)C(=O)C[C@@H](C(=O)N2CCCC2)NC(=O)[C@@H]2CCCN2C(=O)[C@H](Cc2ccc(O)cc2)NC1=O) [PP14] | 3.1 µM | 5.2 µM | 6.8 µM | 1.6 µM | 9 µM | 6.5 µM
6 | XNFSNSWYNIWD (HELM PEPTIDE1{[meA].N.F.S.N.S.W.Y.N.I.W.D.[C1CCN([*:1])C1]}$PEPTIDE1,PEPTIDE1,1:R1-12:R3$$$V2.0; SMILES CC[C@H](C)[C@@H]1NC(=O)[C@H](CC(N)=O)NC(=O)[C@H](Cc2ccc(O)cc2)NC(=O)[C@H](Cc2c[nH]c3ccccc23)NC(=O)[C@H](CO)NC(=O)[C@H](CC(N)=O)NC(=O)[C@H](CO)NC(=O)[C@H](Cc2ccccc2)NC(=O)[C@H](CC(N)=O)NC(=O)[C@H](C)N(C)C(=O)C[C@@H](C(=O)N2CCCC2)NC(=O)[C@H](Cc2c[nH]c3ccccc23)NC1=O) [PP16] | 52.4 µM | 38.1 µM | > 62.1 µM | 20.6 µM | 30.8 µM | 42.2 µM
7 | XVFYKIWYNWD (HELM PEPTIDE1{[meA].V.F.Y.K.I.W.Y.N.W.D.[C1CCN([*:1])C1]}$PEPTIDE1,PEPTIDE1,1:R1-11:R3$$$V2.0; SMILES CC[C@H](C)[C@@H]1NC(=O)[C@H](CCCCN)NC(=O)[C@H](Cc2ccc(O)cc2)NC(=O)[C@H](Cc2ccccc2)NC(=O)[C@H](C(C)C)NC(=O)[C@H](C)N(C)C(=O)C[C@@H](C(=O)N2CCCC2)NC(=O)[C@H](Cc2c[nH]c3ccccc23)NC(=O)[C@H](CC(N)=O)NC(=O)[C@H](Cc2ccc(O)cc2)NC(=O)[C@H](Cc2c[nH]c3ccccc23)NC1=O) [PP19] | 3.7 µM | 4.6 µM | 5.8 µM | 5.4 µM | 12.6 µM | 10.1 µM
